Laboratory results: patent US20140072613A1, “Compositions and Methods for Treating Cutaneous Scarring” (priority 2012, published 2014)

What was measured:
Assay in all cases: biochemical
Type in all cases: biochemical
266 human kinases [1] = target: 266 human kinases (Homo sapiens, UniProt O75116); settings: ROCK-II(h); 100 μM
How it was run: (§1)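 Steps: kinase transfers radiolabelled phosphate from ATP onto a positively charged substrate; the substrate is trapped on a negatively charged filter; bound radioactivity is counted by scintillation and compared with uninhibited (100%) activity.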

266 human kinases [2] = target: 266 human kinases (Homo sapiens, UniProt P07333); settings: Fms(h); 100 μM
How it was run: as §1

266 human kinases [3] = target: 266 human kinases (Homo sapiens, UniProt P16591); settings: Fer(h); 100 μM
How it was run: as §1

266 human kinases [4] = target: T1, 266 human kinases (Homo sapiens, UniProt P29323); settings: EphB2(h); 100 μM
T1 sequence (P29323 19-1055): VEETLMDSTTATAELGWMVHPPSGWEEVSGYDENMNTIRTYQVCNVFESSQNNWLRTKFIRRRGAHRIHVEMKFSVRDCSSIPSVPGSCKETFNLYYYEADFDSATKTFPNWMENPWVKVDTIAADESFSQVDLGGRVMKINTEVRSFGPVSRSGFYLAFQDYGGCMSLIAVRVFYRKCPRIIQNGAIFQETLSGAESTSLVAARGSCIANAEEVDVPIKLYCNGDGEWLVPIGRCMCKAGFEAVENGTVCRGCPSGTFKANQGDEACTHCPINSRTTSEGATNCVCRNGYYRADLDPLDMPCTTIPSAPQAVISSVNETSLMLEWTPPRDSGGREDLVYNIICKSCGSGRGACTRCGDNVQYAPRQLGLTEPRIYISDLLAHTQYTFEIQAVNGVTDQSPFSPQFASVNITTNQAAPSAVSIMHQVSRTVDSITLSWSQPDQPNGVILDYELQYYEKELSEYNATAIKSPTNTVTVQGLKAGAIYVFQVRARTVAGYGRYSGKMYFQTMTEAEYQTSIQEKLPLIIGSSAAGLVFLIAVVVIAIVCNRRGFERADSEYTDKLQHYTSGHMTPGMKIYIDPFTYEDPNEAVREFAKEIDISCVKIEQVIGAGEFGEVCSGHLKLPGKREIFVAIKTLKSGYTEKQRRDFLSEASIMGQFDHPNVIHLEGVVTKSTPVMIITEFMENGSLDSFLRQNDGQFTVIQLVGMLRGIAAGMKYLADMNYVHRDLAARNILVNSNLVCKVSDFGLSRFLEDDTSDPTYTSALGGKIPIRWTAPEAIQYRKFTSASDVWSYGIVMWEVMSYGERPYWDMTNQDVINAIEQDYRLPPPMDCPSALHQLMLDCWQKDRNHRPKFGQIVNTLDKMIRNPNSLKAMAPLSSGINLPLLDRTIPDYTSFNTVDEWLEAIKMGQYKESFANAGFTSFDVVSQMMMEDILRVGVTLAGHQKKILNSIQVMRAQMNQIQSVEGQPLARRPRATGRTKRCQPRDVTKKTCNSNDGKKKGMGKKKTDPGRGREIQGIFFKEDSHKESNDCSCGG
How it was run: as §1

266 human kinases [5] = target: 266 human kinases (Homo sapiens, UniProt P31751); settings: PKBβ(h); 100 μM
How it was run: as §1

266 human kinases [6] = target: T2, 266 human kinases (Homo sapiens, UniProt P42680); settings: Tec(h)activated; 100 μM
T2 sequence (P42680 1-631): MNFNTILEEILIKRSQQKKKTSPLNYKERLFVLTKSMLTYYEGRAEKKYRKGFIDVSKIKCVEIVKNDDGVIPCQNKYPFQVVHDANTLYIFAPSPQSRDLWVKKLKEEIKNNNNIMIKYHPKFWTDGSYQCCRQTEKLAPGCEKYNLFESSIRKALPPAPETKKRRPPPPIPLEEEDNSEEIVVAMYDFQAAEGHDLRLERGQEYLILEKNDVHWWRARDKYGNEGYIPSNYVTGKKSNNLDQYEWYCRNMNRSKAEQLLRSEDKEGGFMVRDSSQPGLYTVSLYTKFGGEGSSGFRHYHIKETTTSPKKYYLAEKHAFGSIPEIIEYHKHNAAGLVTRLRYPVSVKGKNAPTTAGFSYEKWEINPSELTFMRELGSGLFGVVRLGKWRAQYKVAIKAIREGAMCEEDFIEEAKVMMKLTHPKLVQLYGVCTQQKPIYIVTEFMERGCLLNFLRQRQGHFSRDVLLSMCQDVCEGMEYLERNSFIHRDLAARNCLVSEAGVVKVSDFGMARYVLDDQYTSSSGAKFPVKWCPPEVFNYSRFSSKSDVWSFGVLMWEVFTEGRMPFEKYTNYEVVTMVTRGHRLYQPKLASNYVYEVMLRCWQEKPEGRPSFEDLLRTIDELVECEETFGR
How it was run: as §1

266 human kinases [7] = target: 266 human kinases (Homo sapiens, UniProt P52564); settings: MKK6(h); 100 μM
How it was run: as §1

266 human kinases [8] = target: 266 human kinases (Homo sapiens, UniProt Q04759); settings: PKCθ(h); 100 μM
How it was run: as §1

266 human kinases [9] = target: 266 human kinases (Homo sapiens, UniProt Q04912); settings: Ron(h); 100 μM
How it was run: as §1

266 human kinases [10] = target: 266 human kinases (Homo sapiens, UniProt Q13131); settings: AMPKα1(h); 100 μM
How it was run: as §1

266 human kinases [11] = target: 266 human kinases (Homo sapiens, UniProt Q96RG2); settings: PASK(h); 100 μM
How it was run: as §1

266 human kinases [12] = target: 266 human kinases (Homo sapiens, UniProt Q9BYT3); settings: STK33(h); 100 μM
How it was run: as §1

Sequence of 266 human kinases (Homo sapiens, UniProt O75116) (O75116 whole entry): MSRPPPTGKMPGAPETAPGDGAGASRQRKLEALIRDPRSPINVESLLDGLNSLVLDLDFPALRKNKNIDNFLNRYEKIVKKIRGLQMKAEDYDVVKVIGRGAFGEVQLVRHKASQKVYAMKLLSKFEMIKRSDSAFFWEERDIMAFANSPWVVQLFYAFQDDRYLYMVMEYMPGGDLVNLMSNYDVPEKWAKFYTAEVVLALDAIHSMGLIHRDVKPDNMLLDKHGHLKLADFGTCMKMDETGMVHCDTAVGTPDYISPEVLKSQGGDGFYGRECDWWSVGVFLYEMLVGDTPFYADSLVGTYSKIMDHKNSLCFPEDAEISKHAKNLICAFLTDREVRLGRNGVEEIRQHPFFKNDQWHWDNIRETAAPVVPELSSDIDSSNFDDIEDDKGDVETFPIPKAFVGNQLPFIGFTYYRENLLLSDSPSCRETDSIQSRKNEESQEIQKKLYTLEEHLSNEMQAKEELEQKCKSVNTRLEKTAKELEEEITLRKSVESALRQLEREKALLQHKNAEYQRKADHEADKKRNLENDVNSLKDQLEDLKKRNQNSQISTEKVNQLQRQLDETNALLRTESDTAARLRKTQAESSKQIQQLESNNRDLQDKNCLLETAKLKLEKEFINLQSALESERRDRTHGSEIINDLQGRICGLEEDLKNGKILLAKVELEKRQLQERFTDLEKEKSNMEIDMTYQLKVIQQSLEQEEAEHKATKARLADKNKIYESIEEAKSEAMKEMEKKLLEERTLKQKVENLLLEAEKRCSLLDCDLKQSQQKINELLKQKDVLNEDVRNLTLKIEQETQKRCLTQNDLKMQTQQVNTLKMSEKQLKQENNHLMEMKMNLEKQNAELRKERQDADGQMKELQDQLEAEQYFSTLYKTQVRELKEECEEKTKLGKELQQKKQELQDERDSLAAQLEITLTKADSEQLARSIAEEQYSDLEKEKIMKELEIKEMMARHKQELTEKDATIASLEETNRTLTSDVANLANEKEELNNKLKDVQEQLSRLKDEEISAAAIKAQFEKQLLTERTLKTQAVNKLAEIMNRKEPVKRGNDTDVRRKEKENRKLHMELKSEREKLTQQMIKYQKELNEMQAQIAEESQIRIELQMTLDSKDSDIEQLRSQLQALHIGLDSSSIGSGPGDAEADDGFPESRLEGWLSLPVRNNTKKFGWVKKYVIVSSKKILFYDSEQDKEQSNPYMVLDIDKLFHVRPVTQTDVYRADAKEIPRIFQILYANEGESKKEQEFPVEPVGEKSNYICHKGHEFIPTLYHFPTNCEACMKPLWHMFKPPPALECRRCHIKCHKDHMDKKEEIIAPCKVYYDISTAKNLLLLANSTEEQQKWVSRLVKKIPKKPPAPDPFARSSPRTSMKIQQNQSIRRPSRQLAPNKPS
Sequence of 266 human kinases (Homo sapiens, UniProt Q9BYT3) (Q9BYT3 whole entry): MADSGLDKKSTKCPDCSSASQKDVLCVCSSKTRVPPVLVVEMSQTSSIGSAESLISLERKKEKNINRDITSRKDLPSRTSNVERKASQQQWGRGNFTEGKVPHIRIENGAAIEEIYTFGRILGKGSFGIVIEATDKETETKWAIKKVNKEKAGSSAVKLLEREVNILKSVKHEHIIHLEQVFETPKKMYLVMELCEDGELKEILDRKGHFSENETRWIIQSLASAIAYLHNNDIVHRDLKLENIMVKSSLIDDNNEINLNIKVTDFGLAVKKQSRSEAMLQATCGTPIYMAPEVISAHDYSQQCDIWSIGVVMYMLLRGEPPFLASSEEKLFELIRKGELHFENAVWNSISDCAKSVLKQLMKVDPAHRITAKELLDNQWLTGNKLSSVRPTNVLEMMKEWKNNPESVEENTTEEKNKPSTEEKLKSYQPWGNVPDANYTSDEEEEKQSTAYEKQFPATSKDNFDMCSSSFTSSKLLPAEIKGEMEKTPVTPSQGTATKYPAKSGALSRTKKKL
Sequence of 266 human kinases (Homo sapiens, UniProt P16591) (P16591 whole entry): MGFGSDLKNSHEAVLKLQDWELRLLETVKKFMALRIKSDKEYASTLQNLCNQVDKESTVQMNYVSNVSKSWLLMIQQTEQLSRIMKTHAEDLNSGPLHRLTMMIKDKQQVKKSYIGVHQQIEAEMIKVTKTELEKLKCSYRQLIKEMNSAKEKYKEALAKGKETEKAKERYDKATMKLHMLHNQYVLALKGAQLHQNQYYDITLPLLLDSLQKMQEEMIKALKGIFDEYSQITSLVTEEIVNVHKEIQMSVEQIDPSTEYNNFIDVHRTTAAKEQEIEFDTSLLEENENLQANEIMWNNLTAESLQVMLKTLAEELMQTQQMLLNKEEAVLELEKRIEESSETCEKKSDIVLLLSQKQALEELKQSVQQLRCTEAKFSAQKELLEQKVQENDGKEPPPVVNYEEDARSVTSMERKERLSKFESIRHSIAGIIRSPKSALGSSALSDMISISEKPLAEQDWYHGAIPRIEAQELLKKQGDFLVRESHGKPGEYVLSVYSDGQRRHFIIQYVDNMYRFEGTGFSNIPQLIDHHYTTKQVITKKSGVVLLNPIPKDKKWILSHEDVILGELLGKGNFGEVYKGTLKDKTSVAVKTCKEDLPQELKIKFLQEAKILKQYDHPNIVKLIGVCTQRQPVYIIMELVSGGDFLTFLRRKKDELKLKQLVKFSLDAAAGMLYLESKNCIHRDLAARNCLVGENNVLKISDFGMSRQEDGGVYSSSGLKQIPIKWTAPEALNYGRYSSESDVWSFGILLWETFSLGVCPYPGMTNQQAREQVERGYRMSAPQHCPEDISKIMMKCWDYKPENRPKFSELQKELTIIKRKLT
Sequence of 266 human kinases (Homo sapiens, UniProt Q04759) (Q04759 whole entry): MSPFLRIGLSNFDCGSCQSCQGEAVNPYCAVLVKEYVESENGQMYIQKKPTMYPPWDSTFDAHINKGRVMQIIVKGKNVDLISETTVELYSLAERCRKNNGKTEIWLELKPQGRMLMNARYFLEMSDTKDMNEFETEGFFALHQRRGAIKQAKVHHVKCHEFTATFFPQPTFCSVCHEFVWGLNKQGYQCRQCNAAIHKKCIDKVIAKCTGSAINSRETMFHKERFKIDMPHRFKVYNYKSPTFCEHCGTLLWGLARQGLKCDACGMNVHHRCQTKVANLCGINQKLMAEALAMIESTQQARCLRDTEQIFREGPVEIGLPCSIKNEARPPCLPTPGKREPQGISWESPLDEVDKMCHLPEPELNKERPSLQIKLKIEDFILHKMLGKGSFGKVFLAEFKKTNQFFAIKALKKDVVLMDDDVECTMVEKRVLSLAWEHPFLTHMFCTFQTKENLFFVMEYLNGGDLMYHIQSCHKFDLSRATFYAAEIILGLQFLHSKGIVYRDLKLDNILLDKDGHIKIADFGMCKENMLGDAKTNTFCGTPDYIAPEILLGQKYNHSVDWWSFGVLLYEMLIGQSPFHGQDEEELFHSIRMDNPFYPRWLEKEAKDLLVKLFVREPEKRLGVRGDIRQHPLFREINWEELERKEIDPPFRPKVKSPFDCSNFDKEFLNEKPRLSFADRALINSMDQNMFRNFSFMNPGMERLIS
Sequence of 266 human kinases (Homo sapiens, UniProt Q13131) (Q13131 whole entry): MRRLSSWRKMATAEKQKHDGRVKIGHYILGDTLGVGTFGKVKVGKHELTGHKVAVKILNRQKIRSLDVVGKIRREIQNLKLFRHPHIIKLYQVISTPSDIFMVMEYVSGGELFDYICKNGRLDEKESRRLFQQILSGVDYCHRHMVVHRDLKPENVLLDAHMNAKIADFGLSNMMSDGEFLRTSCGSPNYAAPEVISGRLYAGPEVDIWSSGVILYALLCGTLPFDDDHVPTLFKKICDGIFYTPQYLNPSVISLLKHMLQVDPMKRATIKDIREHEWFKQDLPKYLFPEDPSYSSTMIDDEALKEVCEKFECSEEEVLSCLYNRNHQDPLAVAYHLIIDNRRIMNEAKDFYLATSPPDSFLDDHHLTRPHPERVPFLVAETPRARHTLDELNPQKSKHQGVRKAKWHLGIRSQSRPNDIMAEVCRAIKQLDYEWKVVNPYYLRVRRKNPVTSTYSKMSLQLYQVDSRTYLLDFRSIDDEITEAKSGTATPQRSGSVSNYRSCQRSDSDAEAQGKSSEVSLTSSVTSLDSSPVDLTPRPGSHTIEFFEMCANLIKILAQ
Sequence of 266 human kinases (Homo sapiens, UniProt P31751) (P31751 whole entry): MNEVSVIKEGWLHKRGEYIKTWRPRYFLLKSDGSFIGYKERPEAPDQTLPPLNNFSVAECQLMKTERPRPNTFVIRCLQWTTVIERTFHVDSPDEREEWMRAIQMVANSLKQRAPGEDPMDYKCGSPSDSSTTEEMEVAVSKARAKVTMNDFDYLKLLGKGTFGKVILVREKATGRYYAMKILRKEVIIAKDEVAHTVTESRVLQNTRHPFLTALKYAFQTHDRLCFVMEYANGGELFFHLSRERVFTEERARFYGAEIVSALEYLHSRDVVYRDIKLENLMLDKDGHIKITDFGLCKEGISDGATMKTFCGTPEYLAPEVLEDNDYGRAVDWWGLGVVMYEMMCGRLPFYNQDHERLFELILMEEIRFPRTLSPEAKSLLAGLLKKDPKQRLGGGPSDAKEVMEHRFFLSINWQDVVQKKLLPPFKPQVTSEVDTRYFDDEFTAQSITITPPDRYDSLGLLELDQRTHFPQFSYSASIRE
Sequence of 266 human kinases (Homo sapiens, UniProt P52564) (P52564 whole entry): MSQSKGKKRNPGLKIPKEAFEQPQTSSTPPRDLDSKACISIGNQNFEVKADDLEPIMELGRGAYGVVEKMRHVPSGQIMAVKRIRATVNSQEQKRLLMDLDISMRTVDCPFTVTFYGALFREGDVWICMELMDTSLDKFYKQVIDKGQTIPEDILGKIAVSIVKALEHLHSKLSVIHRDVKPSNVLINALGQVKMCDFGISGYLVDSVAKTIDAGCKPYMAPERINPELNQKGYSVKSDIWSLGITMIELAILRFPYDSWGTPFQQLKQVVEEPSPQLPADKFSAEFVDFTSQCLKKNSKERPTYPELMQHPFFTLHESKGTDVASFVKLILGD

Sequence | % activity (266 human kinases [1]) | % activity (266 human kinases [2]) | % activity (266 human kinases [3]) | % activity (266 human kinases [4]) | % activity (266 human kinases [5]) | % activity (266 human kinases [6]) | % activity (266 human kinases [7]) | % activity (266 human kinases [8]) | % activity (266 human kinases [9]) | % activity (266 human kinases [10]) | % activity (266 human kinases [11]) | % activity (266 human kinases [12])
HRRIKAWLKKIKALARQLGVAA (mammal) [MMI-0500] | 2% | 14% | 196% | 70% | 21% | 33% | 18% | 62% | 46% | 35% | 9% | 16%
YARAAARQARAKALNRQLGVA (mammal) [MMI-0200] | 85% | 92% | 101% | 128% | 250% | 77% | 98% | 101% | 120% | 108% | 60% | 98%
